Where “and” joins values, the source holds several entries; their conditions need not be identical. Equal entries are not always repeated.
Columns and labels:
[1] = tested on: encapsulated E. coli; settings: cited from earlier work
[2] = tested on: rough mutant strain of Proteus mirabilis; settings: cited from earlier work
[3] = tested on: wild-type smooth Proteus mirabilis; settings: wild-type smooth organism (Proteus mirabilis); cited from earlier work
[4] = tested on: Staphylococcus aureus; settings: Gram-positive Staphylococcus aureus; cited from earlier work
[5] = tested on: human mononuclear cells; assay: LPS-induced tissue factor by human mononuclear cells (clotting assay); type: cell-based
Method: Human mononuclear cells were separated from citrated peripheral blood by centrifugation over Sodium-metrizoate-Ficoll (lymphocyte Separation Medium, Japan Antibody Institute, Gumma). The resulting mixed mononuclear cell suspension was washed 3 times with RPMI 1640 media. Cell suspension (1×10^6 /ml) was stimulated with LPS for 16 to 18 hr.
Veronal buffered saline (VBS) was added to the cell pellet, lysed by 3 cycles of freeze/thaw and sonicated for 10 sec with a hand-held sonicator microbe (Handy Sonic, model UR-20P, Tomy Seiko LTD, Tokyo). Tissue factor activity was tested in modified unactivated partial thromboplastin time (7). One tenth ml of cell lysate (1×10^6 /ml) was preincubated with mouse plasma at 37° C. for 3 min. Then 0.1 ml of 25 mM-CaCl2 which contains phospholipid was added to the mixture and clotting time was measured using a fibrometer (Bio Quest Division, Becton Dickinson, Cokeysville, USA). A standard curve obtained from serial two-fold dilutions of rabbit brain thromboplastic (Simplastin, Ono Pharmaceutical Co.) was used to transpose tissue factor activity into arbitrary tissue factor units (1 μg/ml) suspension of rabbit brain was assigned a value of 1,000 units).
The mean tissue factor units+standard error was determined from three to four samples. Student's t test for unpair data was used to determine the statistically significant differences. A two-tailed P value of <0.05 was considered significant. […]

[6] = tested on: galactosamine-sensitized mice; type: in vivo; settings: CAP18 40 μg IP alone, no galactosamine, no Re-LPS; groups of 10 mice
Text: Galactosamine sensitizes mice to the lethal effects of LPS by a factor 1000 or more. CAP18 and LPS were mixed and injected IP into sensitized mice. CAP18 can neutralize the lethal effects of LPS in this model of endotoxemia (see Table 8).

[7] = LPS 0.1 μg/ml, peptide HA units: RNIP 2, CAP-18 1, HP-1 4, HP-2 2

B1: BPI55: BPI holoprotein (protein, UniProt P17213 32-487, looked up)
Bactericidal …: VNPGVVVRISQKGLDYASQQGTAALQKELKRIKIPDYSDSFKIKHLGKGHYSFYSMDIREFQLPSSQISMVPNVGLKFSISNANIKISGKWKAQKRFLKMSGNFDLSIEGMSISADLKLGSNPTSGKPTITCSSCSSHINSVHVHISKSKVGWLIQLFHKKIESALRNKMNSQVCEKVTNSVSSELQPYFQTLPVMTKIDSVAGINYGLVAPPATTAETLDVQMKGEFYSENHHNPPPFAPPVMEFPAAHDRMVYLGLSDYFFNTAGLVYQEAGVLKMTLRDDMIPKESKFRLTTKFFGTFLPEVAKKFPNMKIQIHVSASTPPHLSVQPTGLTFYPAVDVQAFAVLPNSSLASLFLIGMHTTGSMEVSAESNRLVGELKLDRLLLELKHSNIGPFPVELLQDIMNYIVPILVLPRVNEKLQKGFPLPTPARVQLYNVVLQPHQNFLLFGADVVYK
- growth inhibitory activity, reduction over control [1]: about 100 fold
- growth inhibition [2]: inhibited the growth
- growth inhibition [3]: only the rBPI23 inhibited growth
- growth inhibition [4]: Neither rBPI23 nor holoprotein BPI55 demonstrated inhibition

B2: CAP18: cationic protein from rabbit granulocytes, 16.6 kD, SEQ ID NO:4 (protein)
chain: METHKHGPSLAWWSLLLLLLGLLMPPAIAQDLTYREAVLRAVDAFNQQSSEANLYRLLSMDPQQLEDAKPYTPQPVSFTVKETECPRTTWKLPEQCDFKEDGLVKRCVGTVTRYQAWDSFDIRCNRAQESPEPTGLRKRLRKFRNKIKEKLKKIGQKIQGLLPKLAPRTDY
- Inhibition (%) [5, 7]: 30% and 35%
- Tissue Factor Units, value in parentheses (ratio to unstimulated control) [5, 7]: 9.9
- Δ Units (%) ([5]; LPS 0.1 μg/ml, relative to LPS alone (100)): 70% and 65%
- Tissue Factor Units, value in parentheses (ratio to unstimulated control) ([5]; no LPS, peptide alone): 1.2
- Tissue factor units ([5]; no LPS, peptide alone): 583 ± 178 Units ×10^3 /3.6 × 10^4 cells
- Δ Units ([5]; no LPS, peptide alone): 235 Units
- Lethality (%) [6]: 0%

Reference: patent publication US6103888A, “Mammalian cationic proteins having lipopolysaccharide binding and anti-coagulant activity” (priority 1999, dated 2000)
